The text below walks through data of patent publication US20250243265A1 (published 2025).

The target in experiment [1] is T1, linear diubiquitin (Boston Biochem) (UniProt P0CG48 1-152). Kind of experiment: phage competition ELISA; fit parameter m3. Background: In an ELISA, binding on a coated surface is turned into a signal by an enzyme label.
The target in experiment [2] is T1, linear diubiquitin (Boston Biochem). The experiment is described as follows: phage competition ELISA; fit parameter m3. The source holds these as a separate data set.

Numbering of substitutions follows the chain as printed. Like-named read-outs stand apart in the source and are kept apart here.

B1: 1D8 Fab displayed on phage (Fab, V domains shown)
VH: EVQLVESGGGLVQPGGSLRLSCAASGFTFTDYDIHWVRQAPGKGLEWVAGISPYGGYTDYADSVKGRFTISADTSKNTAYLQMNSLRAEDTAVYYCAREAGSRLLSVMDYWGQGTLVTVSS
VL: DIQMTQSPSSLSASVGDRVTITCRASQDVSTAVAWYQQKPGKAPKLLIYSASFLYSGVPSRFSGSGSGTDFTLTISSLQPEDFATYYCQQSYTTPPTFGQGTKVEIK
As usually defined, the IC50 is the concentration that gives 50% inhibition. Low values mean higher potency, high ones lower potency. B1 showed an IC50 in experiment [1] of 5.77 µM.

B2: 1D8.4F5 Fab displayed on phage (Fab, V domains shown)
VH: B1 VH with Y32D, G50E
VL: B1 VL with Y92F
In experiment [2], B2 yielded an IC50 of 2.21 µM.
